Experimental data taken from publication PMC3781060.

Key:
[1] = biological target: low-density lipoprotein (LDL) receptor-related protein-1 (LRP1) (rat (endogenous in PC12 cells and primary DRG neurons)) (UniProt G3V928)
[2] = biological target: low-density lipoprotein (LDL) receptor-related protein-1 (LRP1) (rat (endogenous in PC12 cells and primary DRG neurons)) (UniProt G3V928); remark: listed apart in the source

Chain of UniProt G3V928 (G3V928 20-4545): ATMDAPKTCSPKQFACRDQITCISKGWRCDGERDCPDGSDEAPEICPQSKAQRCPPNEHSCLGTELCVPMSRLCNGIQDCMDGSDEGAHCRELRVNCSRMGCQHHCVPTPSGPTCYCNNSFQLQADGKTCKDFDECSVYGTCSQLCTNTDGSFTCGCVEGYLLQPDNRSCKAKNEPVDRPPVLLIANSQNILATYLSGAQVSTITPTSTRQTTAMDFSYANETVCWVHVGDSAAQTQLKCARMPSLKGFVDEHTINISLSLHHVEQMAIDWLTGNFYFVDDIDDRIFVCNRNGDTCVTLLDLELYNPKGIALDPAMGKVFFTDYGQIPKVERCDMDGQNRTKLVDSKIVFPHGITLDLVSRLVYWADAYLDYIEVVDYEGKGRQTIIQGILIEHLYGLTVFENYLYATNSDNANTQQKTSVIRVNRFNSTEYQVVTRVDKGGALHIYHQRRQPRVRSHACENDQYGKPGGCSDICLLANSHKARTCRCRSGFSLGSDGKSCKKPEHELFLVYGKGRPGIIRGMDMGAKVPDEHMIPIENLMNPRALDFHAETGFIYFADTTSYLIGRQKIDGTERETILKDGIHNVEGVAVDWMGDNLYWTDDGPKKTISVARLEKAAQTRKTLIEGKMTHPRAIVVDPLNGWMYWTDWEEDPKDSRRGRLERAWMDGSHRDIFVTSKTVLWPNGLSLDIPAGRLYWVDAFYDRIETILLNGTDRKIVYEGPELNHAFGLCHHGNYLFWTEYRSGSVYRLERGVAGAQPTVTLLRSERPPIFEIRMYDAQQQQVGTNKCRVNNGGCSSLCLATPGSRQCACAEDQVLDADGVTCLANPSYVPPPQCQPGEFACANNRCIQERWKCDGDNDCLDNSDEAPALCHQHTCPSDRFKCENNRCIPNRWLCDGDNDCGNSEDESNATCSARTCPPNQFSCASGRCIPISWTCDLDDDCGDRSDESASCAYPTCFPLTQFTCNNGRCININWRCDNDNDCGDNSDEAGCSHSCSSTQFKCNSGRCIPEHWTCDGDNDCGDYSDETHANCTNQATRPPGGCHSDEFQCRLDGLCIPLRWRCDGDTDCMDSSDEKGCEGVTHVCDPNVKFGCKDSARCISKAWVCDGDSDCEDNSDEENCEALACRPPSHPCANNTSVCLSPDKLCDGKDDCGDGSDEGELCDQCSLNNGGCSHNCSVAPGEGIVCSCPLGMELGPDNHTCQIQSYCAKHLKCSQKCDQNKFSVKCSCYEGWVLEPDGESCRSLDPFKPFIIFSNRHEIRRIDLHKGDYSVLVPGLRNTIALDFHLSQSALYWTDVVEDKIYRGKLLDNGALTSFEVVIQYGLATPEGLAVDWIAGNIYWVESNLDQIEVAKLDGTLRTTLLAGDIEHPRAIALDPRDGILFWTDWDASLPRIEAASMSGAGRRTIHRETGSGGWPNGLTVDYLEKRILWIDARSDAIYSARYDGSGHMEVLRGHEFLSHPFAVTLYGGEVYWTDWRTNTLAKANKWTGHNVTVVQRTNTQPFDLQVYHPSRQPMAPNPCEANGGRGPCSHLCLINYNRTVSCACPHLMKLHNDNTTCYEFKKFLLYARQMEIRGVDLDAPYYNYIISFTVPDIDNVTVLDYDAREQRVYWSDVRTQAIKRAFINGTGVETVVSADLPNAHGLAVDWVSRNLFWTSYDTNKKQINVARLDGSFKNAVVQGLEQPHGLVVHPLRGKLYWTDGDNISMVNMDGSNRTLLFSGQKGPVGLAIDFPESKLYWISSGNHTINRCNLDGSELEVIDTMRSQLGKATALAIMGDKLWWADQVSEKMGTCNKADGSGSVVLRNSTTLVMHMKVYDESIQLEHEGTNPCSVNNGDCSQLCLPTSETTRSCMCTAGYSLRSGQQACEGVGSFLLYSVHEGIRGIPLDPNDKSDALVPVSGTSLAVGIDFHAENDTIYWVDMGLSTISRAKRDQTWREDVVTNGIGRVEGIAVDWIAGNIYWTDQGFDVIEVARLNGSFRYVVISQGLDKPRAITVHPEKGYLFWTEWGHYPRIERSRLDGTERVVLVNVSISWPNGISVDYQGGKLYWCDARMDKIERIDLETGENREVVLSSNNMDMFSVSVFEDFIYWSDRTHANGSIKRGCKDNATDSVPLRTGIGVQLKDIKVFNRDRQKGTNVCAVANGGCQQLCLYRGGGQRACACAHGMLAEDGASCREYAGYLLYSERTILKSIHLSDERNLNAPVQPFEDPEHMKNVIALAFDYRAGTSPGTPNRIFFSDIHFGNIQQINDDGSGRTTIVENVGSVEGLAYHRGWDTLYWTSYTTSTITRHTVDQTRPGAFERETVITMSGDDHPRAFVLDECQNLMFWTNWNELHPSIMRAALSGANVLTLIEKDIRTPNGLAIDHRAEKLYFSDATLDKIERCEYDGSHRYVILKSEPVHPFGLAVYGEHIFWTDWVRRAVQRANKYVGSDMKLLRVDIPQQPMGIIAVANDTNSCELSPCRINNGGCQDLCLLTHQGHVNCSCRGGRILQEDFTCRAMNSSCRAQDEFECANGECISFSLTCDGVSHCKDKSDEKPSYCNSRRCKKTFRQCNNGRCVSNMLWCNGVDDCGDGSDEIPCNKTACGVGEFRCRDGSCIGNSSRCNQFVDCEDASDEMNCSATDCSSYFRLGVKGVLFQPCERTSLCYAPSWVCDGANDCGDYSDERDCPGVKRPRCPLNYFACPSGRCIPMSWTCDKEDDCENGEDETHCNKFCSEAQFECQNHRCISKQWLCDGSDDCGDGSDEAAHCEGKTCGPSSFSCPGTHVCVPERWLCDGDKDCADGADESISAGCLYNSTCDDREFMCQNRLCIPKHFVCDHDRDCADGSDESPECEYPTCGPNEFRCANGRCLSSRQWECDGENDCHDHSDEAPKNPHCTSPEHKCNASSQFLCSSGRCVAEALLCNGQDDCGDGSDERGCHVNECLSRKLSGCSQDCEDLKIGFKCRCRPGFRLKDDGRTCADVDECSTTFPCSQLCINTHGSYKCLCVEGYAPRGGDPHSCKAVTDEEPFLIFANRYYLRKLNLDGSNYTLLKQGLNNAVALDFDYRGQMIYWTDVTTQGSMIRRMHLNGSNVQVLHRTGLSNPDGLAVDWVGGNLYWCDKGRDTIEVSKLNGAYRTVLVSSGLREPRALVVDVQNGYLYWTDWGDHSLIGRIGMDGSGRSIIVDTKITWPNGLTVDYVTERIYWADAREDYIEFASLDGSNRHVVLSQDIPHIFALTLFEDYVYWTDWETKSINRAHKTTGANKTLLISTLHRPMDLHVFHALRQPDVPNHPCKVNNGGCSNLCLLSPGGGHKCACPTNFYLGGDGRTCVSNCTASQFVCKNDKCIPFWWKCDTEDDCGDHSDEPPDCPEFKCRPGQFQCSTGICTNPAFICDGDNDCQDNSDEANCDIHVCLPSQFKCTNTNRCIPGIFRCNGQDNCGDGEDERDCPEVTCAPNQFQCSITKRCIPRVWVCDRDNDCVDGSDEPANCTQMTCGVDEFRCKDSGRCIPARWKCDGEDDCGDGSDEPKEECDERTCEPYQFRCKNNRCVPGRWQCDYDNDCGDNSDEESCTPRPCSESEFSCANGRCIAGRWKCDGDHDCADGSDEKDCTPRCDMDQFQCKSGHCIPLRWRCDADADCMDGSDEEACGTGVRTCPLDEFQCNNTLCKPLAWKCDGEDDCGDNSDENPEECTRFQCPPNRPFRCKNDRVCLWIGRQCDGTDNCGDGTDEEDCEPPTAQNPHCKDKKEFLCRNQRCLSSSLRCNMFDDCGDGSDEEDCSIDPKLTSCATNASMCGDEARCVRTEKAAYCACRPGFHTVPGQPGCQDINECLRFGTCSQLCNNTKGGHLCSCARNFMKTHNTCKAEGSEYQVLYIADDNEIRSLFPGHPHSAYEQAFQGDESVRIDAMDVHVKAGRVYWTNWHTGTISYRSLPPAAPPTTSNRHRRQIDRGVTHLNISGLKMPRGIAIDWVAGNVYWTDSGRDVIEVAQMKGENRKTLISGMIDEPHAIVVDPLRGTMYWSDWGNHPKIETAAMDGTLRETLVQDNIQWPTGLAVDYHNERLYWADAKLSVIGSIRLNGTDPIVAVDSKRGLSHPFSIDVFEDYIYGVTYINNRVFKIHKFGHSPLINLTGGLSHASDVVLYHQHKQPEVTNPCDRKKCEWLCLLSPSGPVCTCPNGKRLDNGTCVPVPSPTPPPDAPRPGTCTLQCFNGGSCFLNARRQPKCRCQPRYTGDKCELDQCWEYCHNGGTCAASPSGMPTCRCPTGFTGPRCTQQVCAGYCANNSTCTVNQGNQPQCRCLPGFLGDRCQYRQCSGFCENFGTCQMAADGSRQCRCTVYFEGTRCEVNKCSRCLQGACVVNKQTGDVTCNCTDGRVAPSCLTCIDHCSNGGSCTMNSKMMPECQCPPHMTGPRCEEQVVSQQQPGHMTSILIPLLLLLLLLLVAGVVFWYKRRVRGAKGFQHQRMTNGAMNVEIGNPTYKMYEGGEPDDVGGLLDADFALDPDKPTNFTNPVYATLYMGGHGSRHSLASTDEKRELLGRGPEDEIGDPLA

Row | neurite outgrowth of primary embryonic sensory neurons cultured for 2 weeks with MMP-9-PEX (100 nM), quantified as GAP-43 mRNA compared to GST [1] | neurite outgrowth of primary embryonic sensory neurons cultured for 2 weeks with RBD, compared to GST controls [2] | Molecule
1 | 15 fold |  | GST fusion protein of the hemopexin domain of matrix metalloprotease-9 (MMP-9-PEX) (domain or fragment)
2 |  | > 40 fold | GST fusion protein of the Receptor Binding Domain of α2-macroglobulin (RBD) (domain or fragment) GAATFTRTGKAAQVTIQSSGTFSSKFQVDNNNRLLLQQVSLPELPGEYSMKVTGEGCVYLQTSLKYNILPEKEEFPFALGVQTLPQTCDEPKAHTSFQISLSVSYTGSRSASNMAIVDVKMVSGFIPLKPTVKMLERSNHVSRTEVSSNHVLIYLDKVSNQTLSLFFTVLQDVPVRDLKPAIVKVYDYYETDEFAIAEYNAPCSKDLGNA
